The RNAGym collection of RNA variant scans (doi:10.7554/elife.80360)

B1: Hairpin Ribozyme (parent)
chain: GUCCUCUUUCACGUGCGCGUGAAAGAGAGAAGUGAACCAGAGAAACACACGUUGUGGUAUAUUACCUGGUA

Variants of: B1
Experiment: self-cleavage, relative activity (ratio to wild type); higher = more cleavage; co-transcriptional

Row | Variant | self-cleavage
1 | A47G A59G | 0.196
2 | C46U G54U | 0.179
3 | A47G C66G | 0.128
4 | C46A G57U | 0.123
5 | A43G G68U | 0.092
6 | A43G G68A | 0.172
7 | A45C U62C | 0.141
8 | A47G A61G | 0.219
9 | A47C U53C | 0.192
10 | A47C U53G | 0.174
11 | A43U G51A | 0.247
12 | A43U G51U | 0.0946
13 | A43U G51C | 0.241
14 | A45G C50A | 0.123
15 | A45G C50U | 0.174
16 | A47C A71C | 0.72
17 | A43G U58A | 0.128
18 | A47C C66A | 0.205
19 | C46G A71G | 0.166
20 | A44G C66G | 0.15
21 | A45G G57A | 0.0893

Row | Variant | self-cleavage
22 | A44C U55A | 0.0312
23 | A45U A49C | 0.134
24 | A45U A49G | 0.165
25 | A43G C65G | 0.117
26 | A45G G51A | 0.161
27 | C46A A64U | 0.255
28 | C46A A64C | 0.0755
29 | C46A A64G | 0.185
30 | A44C A45U | 0.0709
31 | A47G C50A | 0.172
32 | A47G C50G | 0.105
33 | A45G U67A | 0.0776
34 | A45U U55A | 0.197
35 | A44G U67C | 0.145
36 | C46G A49C | 0.13
37 | A44U U55C | 0.168
38 | A44G A71G | 0.117
39 | A44G G56A | 0.191
40 | A44G G56C | 0.0768
41 | A47U A59G | 0.151
42 | A44G U62C | 0.12

Row | Variant | self-cleavage
43 | C46A G54U | 0.307
44 | A43G A64U | 0.302
45 | A43U U70G | 0.0463
46 | C46A U60C | 0.277
47 | C46A U60A | 0.0649
48 | A44C G57U | 0.0814
49 | A45C G51U | 0.116
50 | A47C U70G | 0.272
51 | C46G A59U | 0.13
52 | A44C A64G | 0.141
53 | A44C A64U | 0.155
54 | A44C A64C | 0.0397
55 | C46U C65G | 0.087
56 | A44U C66U | 0.222
57 | A44U C66A | 0.151
58 | A43U A71C | 0.396
59 | A45G C46A | 0.17
60 | A45G C46U | 0.223
61 | C46G C65A | 0.174
62 | A44U A64U | 0.203
63 | A44U A64C | 0.216

Row | Variant | self-cleavage
64 | C46A G51A | 0.215
65 | C46A G51U | 0.146
66 | C46A U58G | 0.158
67 | C46A U58A | 0.198
68 | A45C G54U | 0.152
69 | A47C U62G | 0.227
70 | A43U A44G | 0.163
71 | A45C A71G | 0.154
72 | A47C G56U | 0.149
73 | C46U C66U | 0.149
74 | A44C A49C | 0.103
75 | A45U U52A | 0.122
76 | A44C U58A | 0.0929
77 | A44U C48A | 0.124
78 | A47C U55A | 0.195
79 | C46A | 0.148
80 | C46U | 0.149
81 | C46G | 0.15
82 | C46G G68A | 0.123
83 | C46G G68U | 0.19
